# Earlier results in article PMC10162908.
# Target: EED (Homo sapiens) (UniProt O75530)
# Chain of UniProt O75530 (O75530 2-441): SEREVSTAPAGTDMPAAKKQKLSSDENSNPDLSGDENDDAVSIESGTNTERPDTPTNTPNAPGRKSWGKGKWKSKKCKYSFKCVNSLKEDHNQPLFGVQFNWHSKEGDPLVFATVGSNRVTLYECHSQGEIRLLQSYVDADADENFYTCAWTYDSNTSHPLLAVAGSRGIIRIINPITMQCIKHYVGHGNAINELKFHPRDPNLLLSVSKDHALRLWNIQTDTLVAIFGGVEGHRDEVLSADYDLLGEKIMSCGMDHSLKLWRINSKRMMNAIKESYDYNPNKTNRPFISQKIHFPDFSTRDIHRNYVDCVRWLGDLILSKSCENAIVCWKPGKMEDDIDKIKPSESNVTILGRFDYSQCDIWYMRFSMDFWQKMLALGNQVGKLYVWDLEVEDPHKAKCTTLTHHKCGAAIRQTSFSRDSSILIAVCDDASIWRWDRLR
substance,measurement,value
Jarid2 K116me3 peptide 114-118 (from UniProt Q92833),Kd,8.82 µM
